In patent publication US20100247549A1:

Columns and labels:
[1] = target: Envelope glycoprotein (E) of antigenic variant DENV-4 v4 (Leu for Pro at position 176 in E) (dengue virus type 4) (UniProt P09866)
[2] = target: Envelope glycoprotein (E) of parental DENV-4 (FRhL) (dengue virus type 4) (UniProt P09866)
[3] = target: Envelope glycoprotein (E) of antigenic variant DENV-4 v3 (Glu for Lys at position 174 in E) (dengue virus type 4) (UniProt P09866); assay: cell-based or functional assay
[4] = target: Envelope glycoprotein (E) of antigenic variant DENV-4 v4 (Leu for Pro at position 176 in E) (dengue virus type 4) (UniProt P09866); assay: cell-based or functional assay
[5] = target: Fc receptors on K562 cells; assay: cell-based or functional assay

| Substance | Kd [1] [nM] | Kd [2] [nM] | PRNT50 titer [3] [µg/mL] | PRNT50 titer [4] [µg/mL] | enhancing activity of DENV-4 infection in K562 cells, % of cells infected [5] [%] |
| --- | --- | --- | --- | --- | --- |
| Humanized IgG 5H2 ΔD (IgG1 5H2 with a 9-amino-acid deletion, positions 231-239, at the N-terminus of the CH2 domain) (antibody) | 0.32 | 0.23 | > 10 | 0.5 | – |
| IgG 1A5 ΔA (replacement amino acids at 327, 330 and 331 from the Fc of IgG4) (from UniProt P01857 1-330) (antibody) | – | – | – | – | 37.6 |
| IgG 1A5 ΔB (replacement amino acids at 233-236 from the Fc of IgG2) (from UniProt P01857 1-330) (antibody) | – | – | – | – | 24 |
| IgG 1A5 ΔC (replacements of both variants ΔA and ΔB) (from UniProt P01857 1-330) (antibody) | – | – | – | – | 18.8 |
